Target: CD2 (human) (UniProt P06729)
Test: cell-based or functional assay

Chain of UniProt P06729 (P06729 25-351 limits assumed, form in doubt): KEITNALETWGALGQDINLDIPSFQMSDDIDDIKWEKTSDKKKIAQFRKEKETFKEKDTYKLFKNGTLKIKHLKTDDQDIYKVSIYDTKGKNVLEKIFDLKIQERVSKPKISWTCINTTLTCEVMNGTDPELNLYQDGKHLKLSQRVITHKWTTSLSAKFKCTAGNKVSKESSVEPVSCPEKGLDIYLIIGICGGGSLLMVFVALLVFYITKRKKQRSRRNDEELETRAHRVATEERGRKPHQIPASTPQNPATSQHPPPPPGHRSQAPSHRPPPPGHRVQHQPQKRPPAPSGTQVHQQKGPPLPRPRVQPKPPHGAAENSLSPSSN

## anti-CD2 monoclonal antibody TS2/18
  inhibition of allogeneic T cell activation by normal skin epidermal cells, 50 ug per ml antibody: 40%
  inhibition of autologous T cell proliferation ([3H]TdR incorporation) in response to lesional psoriatic epidermis, 50 ug/ml antibody, against isotype-matched control: 60%

Reference: patent publication EP0607332B1
